The text below walks through data of PMC8602864, “The Molecular Assembly State of Drp1 Controls its Association With the Mitochondrial Recruitment Receptors Mff and MIEF1/2” (Frontiers in Cell and Developmental Biology, 2021).

The data set concerns the molecule itself. In words: cross-linking; in vivo: intact 293T cells (WT; MIEF1/2/Mff-/-; overexpressing MIEF1-V5, MIEF2-V5 or Myc-Mff; or Drp1-/- transfected with untagged Drp1 for 18 h) with 1 mM DSS in PBS with Ca2+/Mg2+, time course or 3 h, room temperature, quenched with 50 mM Tris pH 7.5; reducing SDS-PAGE and Western blot. A general note: A western blot detects proteins with antibodies after separation by electrophoresis.

One may read the stoichiometry N as the number of molecules, sites or subunits per partner or assembly.

B1: untagged Drp1-4A (natural protein, human, UniProt O00429 1-736, looked up)
chain: MEALIPVINKLQDVFNTVGADIIQLPQIVVVGTQSSGKSSVLESLVGRDLLPRGTGIVTRRPLILQLVHVSQEDKRKTTGEENGVEAEEWGKFLHTKNKLYTDFDEIRQEIENETERISGNNKGVSPEPIHLKIFSPNVVNLTLVDLPGMTKVPVGDQPKDIELQIRELILRFISNPNSIILAVTAANTDMATSEALKISREVDPDGRRTLAVITKLDLMDAGTDAMDVLMGRVIPVKLGIIGVVNRSQLDINNKKSVTDSIRDEYAFLQKKYPSLANRNGTKYLARTLNRLLMHHIRDCLPELKTRINVLAAQYQSLLNSYGEPVDDKSATLLQLITKFATEYCNTIEGTAKYIETSELCGGARICYIFHETFGRTLESVDPLGGLNTIDILTAIRNATAAAAALFVPEVSFELLVKRQIKRLEEPSLRCVELVHEEMQRIIQHCSNYSTQELLRFPKLHDAIVEVVTCLLRKRLPVTNEMVHNLVAIELAYINTKHPDFADACGLMNNNIEEQRRNRLARELPSAVSRDKSSKVPSALAPASQEPSPAASAEADGKLIQDSRRETKNVASGGGGVGDGVQEPTTGNWRGMLKTSKAEELLAEEKSKPIPIMPASPQKGHAVNLLDVPVPVARKLSAREQRDCEVIERLIKSYFLIVRKNIQDSVPKAVMHFLVNHVKDTLQSELVGQLYKSSLLDDLLTESEDMAQRRKEAADMLKALQGASQIIAEIRETHLW
notes: human Drp1 isoform 1 with the four residues 401GPRP404 mutated to AAAA, untagged; Made by site-directed mutagenesis on untagged Drp1-WT; Copies: ~280 kDa cross-linked product said to correspond to tetramers; also called Drp1-4A mutant
As to B1, the “stoichiometry N” value is 4.
